Assay results reported in the supplement of paper PMC10724198.
± gives the standard deviation of the averaged measurements.

Tested on: Saccharomyces cerevisiae
Assay: protein stability index of tFT-peptide fusion (C-terminal peptide) (PSI (0-1 scale)); higher = more stable (slower turnover)
Details: genetic background: wild type; temperature: 30 C
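Note: PSI is a weighted mean of sequencing reads over stability bins, variants kept only with over 10 reads, mCherry proximal and sfGFP distal, peptide attached via GGGS linker.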

PPPPPSSPPPPA
protein stability index: 0.639 ± 0.099

PPPPPTPHTPLL
protein stability index: 0.672 ± 0.031

PPPPPTPPHQPR
protein stability index: 0.79 ± 0.022

PPPPPTPSTRTS
protein stability index: 0.667 ± 0.015

PPPPPVSSPLVT
protein stability index: 0.657 ± 0.048

PPPPRATLPRPP
protein stability index: 0.681 ± 0.044

PPPPRPSPPSLP
protein stability index: 0.676 ± 0.0058

PPPPSCPHSAPL
protein stability index: 0.637 ± 0.008

PPPPSHPSPPPP
protein stability index: 0.654 ± 0.021

PPPPSLPTPRPP
protein stability index: 0.662 ± 0.012

PPPPSPPPILPP
protein stability index: 0.64 ± 0.01

PPPPSRPPSPGP
protein stability index: 0.6691 ± 0.00067

PPPPSVCPRFPI
protein stability index: 0.785 ± 0.12

PPPPTPLPPPDP
protein stability index: 0.68 ± 0.035

PPPPTPRYRAPL
protein stability index: 0.671 ± 0.057

PPPPVLPPPLPP
protein stability index: 0.7 ± 0.012

PPPPVPRPRLPI
protein stability index: 0.648 ± 0.099

PPPPYPLPASCL
protein stability index: 0.653 ± 0.058

PPPPYPSTRHSP
protein stability index: 0.6564 ± 0.0021

PPPQPPPSPPPP
protein stability index: 0.67 ± 0.097

PPPQTRPPTPTP
protein stability index: 0.741 ± 0.081

PPPRARPHAPPL
protein stability index: 0.653 ± 0.017

PPPRLNPLPPAC
protein stability index: 0.731 ± 0.066

PPPRLPSRPPPP
protein stability index: 0.716 ± 0.032

PPPRLRSPHGLF
protein stability index: 0.718 ± 0.08

PPPRPPLPPPLP
protein stability index: 0.692 ± 0.032

PPPRPPPPPPVP
protein stability index: 0.707 ± 0.041

PPPRPRLSRLLH
protein stability index: 0.6114 ± 0.0012

PPPRSLPPISPV
protein stability index: 0.623 ± 0.02

PPPRTFSSSFHV
protein stability index: 0.6366 ± 0.0043

PPPSHLHLPSPA
protein stability index: 0.53 ± 0.0095

PPPSPPAQSLRS
protein stability index: 0.759 ± 0.079

PPPSPPSGALTP
protein stability index: 0.763 ± 0.053

PPPSPSPPPSSP
protein stability index: 0.698 ± 0.039

PPPSPSTPKTTL
protein stability index: 0.6943 ± 0.0068

PPPSRPSHPPPA
protein stability index: 0.628 ± 0.015

PPPSSPPSPVIR
protein stability index: 0.694 ± 0.056

PPPTLPPPPPAL
protein stability index: 0.711 ± 0.033

PPPTLPSPPSPP
protein stability index: 0.712 ± 0.011

PPPTLYPPPFPP
protein stability index: 0.659 ± 0.027

PPPTRAPPPKPG
protein stability index: 0.621 ± 0.028

PPPVPPRFAVRP
protein stability index: 0.6678 ± 0.0015

PPPWPSLCLPPS
protein stability index: 0.706 ± 0.048

PPPYAPLPPTWP
protein stability index: 0.726 ± 0.023

PPPYPFPHLSPL
protein stability index: 0.713 ± 0.029

PPPYPSYPPRPN
protein stability index: 0.724 ± 0.032

PPQHRNPAVRRH
protein stability index: 0.667 ± 0.023

PPRAPLPRPPQP
protein stability index: 0.656 ± 0.011

PPRAPSPLPPPL
protein stability index: 0.704 ± 0.027

PPRLDLPFPLSR
protein stability index: 0.747 ± 0.08

PPRPDRSSLPPF
protein stability index: 0.712 ± 0.037

PPRPLTPAPSDT
protein stability index: 0.682 ± 0.014

PPRPPCSPLPPR
protein stability index: 0.678 ± 0.052

PPRPPPPPAHPP
protein stability index: 0.557 ± 0.029

PPRPPPPPSPPL
protein stability index: 0.745 ± 0.027

PPRPPPSSPHLV
protein stability index: 0.698 ± 0.023

PPRPPRPPPRTP
protein stability index: 0.694 ± 0.022

PPRPPSPAPPPP
protein stability index: 0.687 ± 0.042

PPRPRRPLHRSS
protein stability index: 0.664 ± 0.011

PPRQPFPPILPS
protein stability index: 0.677 ± 0.046

PPRQPLSLLLPL
protein stability index: 0.6468 ± 0.0016

PPRRPPRPPPPA
protein stability index: 0.701 ± 0.064

PPRRSSLSPPLA
protein stability index: 0.6562 ± 0.0027

PPRSHKPPQMQT
protein stability index: 0.663 ± 0.0082

PPRSPRPPPSRP
protein stability index: 0.72 ± 0.1

PPRTMTLSAPLT
protein stability index: 0.708 ± 0.02

PPSALPHPPLPP
protein stability index: 0.718 ± 0.028

PPSARLPPPPPR
protein stability index: 0.789 ± 0.12

PPSHIPASGTKR
protein stability index: 0.716 ± 0.041

PPSHPLTIRPPL
protein stability index: 0.663 ± 0.014

PPSIEAAQPPYF
protein stability index: 0.681 ± 0.015

PPSLFSSTQLLF
protein stability index: 0.7095 ± 0.0067

PPSLPLPAPPPP
protein stability index: 0.66 ± 0.063

PPSLPPPSPAPL
protein stability index: 0.682 ± 0.03

PPSLPPRPRPPS
protein stability index: 0.6411 ± 0.0049

PPSPAFTTHLPP
protein stability index: 0.576 ± 0.0064

PPSPALPPSLPV
protein stability index: 0.682 ± 0.032

PPSPAPSPPRPL
protein stability index: 0.702 ± 0.021

PPSPHHPPPPAL
protein stability index: 0.753 ± 0.0082

PPSPPPARPSPA
protein stability index: 0.667 ± 0.041

PPSPPPPPAHPP
protein stability index: 0.597 ± 0.01
